Assay results: publication PMC8831599 (2022)
Values belong to the binder of their own block, whether it stands above or below them.

Legend:
[1] = molecular target: T1, IAA7 degron (Arabidopsis thaliana, UniProt Q38825, auxin); assay: BLI
T1 chain: QVVGWPPVRNYRK

[2] = molecular target: His-CA14; assay: 200 uM CBD; AlphaScreen competition with Biotin-DB21
[3] = molecular target: His-CA14 D34A; assay: as above
[4] = molecular target: T2, GST-TIR1-ASK1 complex (Arabidopsis thaliana, UniProt Q570C0 1-594; Q39255 1-160); assay: 200 uM auxin; AlphaScreen competition with biotin-Aux/IAA7
T2 chain 1: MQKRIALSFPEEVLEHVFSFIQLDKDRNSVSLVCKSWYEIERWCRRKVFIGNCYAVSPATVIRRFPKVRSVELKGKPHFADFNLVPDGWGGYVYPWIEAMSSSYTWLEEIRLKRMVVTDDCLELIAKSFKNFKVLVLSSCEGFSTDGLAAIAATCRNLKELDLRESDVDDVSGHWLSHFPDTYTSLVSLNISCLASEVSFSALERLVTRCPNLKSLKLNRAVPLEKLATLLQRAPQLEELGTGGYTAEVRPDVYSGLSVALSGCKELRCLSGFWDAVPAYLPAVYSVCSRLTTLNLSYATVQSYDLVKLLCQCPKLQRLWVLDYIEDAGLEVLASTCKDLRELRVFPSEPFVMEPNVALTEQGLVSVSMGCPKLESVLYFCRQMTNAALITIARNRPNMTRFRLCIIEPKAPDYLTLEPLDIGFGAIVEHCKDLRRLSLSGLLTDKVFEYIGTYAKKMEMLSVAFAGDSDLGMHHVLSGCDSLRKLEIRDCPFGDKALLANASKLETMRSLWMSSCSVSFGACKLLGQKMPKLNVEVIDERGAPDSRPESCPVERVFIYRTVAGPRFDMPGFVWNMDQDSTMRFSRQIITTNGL
T2 chain 2: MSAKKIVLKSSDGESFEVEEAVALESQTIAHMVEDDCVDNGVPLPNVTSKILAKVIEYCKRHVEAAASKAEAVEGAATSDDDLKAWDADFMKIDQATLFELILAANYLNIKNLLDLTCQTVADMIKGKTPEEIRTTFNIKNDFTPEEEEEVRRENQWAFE

[5] = molecular target: His-DDB1–CRBN complex (human, UniProt Q96SW2 41-442; Q16531 1-1140); assay: 200 uM pomalidomide; AlphaScreen competition
[6] = molecular target: Biotinylated DB21 H101A (biotin on the Avi-tag (BirA-catalyzed)); assay: BLI; 200 uM CBD
[7] = molecular target: T3, Biotinylated DB21 F48A-H101A (biotin on the Avi-tag (BirA-catalyzed)); assay: BLI; 200 uM CBD
[8] = molecular target: T4, Biotinylated DB21 F48A (biotin on the Avi-tag (BirA-catalyzed)); assay: BLI; 200 uM CBD
[9] = molecular target: T3, Biotinylated DB21 F48A-H101A; assay: no CBD; AlphaScreen competition
[10] = molecular target: T4, Biotinylated DB21 F48A; assay: no CBD; AlphaScreen competition
[11] = molecular target: T3, Biotinylated DB21 F48A-H101A; assay: 200 uM CBD; AlphaScreen competition
[12] = molecular target: T4, Biotinylated DB21 F48A; assay: 200 uM CBD; AlphaScreen competition
[13] = molecular target: T5, Biotin-DB21 (biotinylated Avi-DB21) (biotin on the Avi-tag (BirA-catalyzed)); assay: no CBD; AlphaScreen competition with His-CA14
[14] = molecular target: T5, Biotin-DB21 (biotinylated Avi-DB21); assay: 200 uM CBD; AlphaScreen competition with His-CA14

B1: TIR1 (protein)
chain: T2 chain 1
Kd [1]: 30.5 nM

B3: IAA7 degron peptide, non-labeled (peptide)
chain: QVVGWPPVRNYRK
modifications: synthetic peptide, unlabelled; limits not given, taken from the IAA7 degron peptide of the TIR1-ASK1 crystal structures (13-mer, PDB 2P1Q)
IC50 [4]: 18.4 nM

B5: CA14 anchor binder nanobody, tag-free (VHH)
VHH: EVQLQASGGGFVQPGGSLRLSCAASGSTSRQYDMGWFRQAPGKEREFVSAISSNQDQPPYYADSVKGRFTISRDNSKNTVYLQMNSLRAEDTATYYCAFKQHHANGAYWGQGTQVTVSS
Kd [6]: 215 nM
Kd [7]: 1900 nM
Kd [8]: 1500 nM
IC50 [9]: 23000 nM
IC50 [10]: 18000 nM
IC50 [11]: 4700 nM
IC50 [12]: 1700 nM
IC50 [13]: 17000 nM
IC50 [14]: 31 nM

Further lines, results first:

IC50 [2]: 35 nM
IC50 [3]: 27000 nM
B2: DB21 dimerization binder nanobody, tag-free (VHH)
VHH: EVQLQASGGGFVQPGGSLRLSCAASGTTYGQTNMGWFRQAPGKEREFVSAISGLQGRDLYYADSVKGRFTISRDNSKNTVYLQMNSLRAEDTATYYCAFHDFLRMWEYWGQGTQVTVSS

IC50 [5]: 67 nM
B4: Label-free IKZF1 ZF2-3 (141-196) (domain or fragment)
chain: GERPFQCNQCGASFTQKGNLLRHIKLHSGEKPFKCHLCNYACRRRDALTGHLRTHS
